In the supplement of paper PMC5998384:

Legend:
[1] = test system: HeLa Kyoto; test: solubility in G1/S (NP-40 vs SDS abundance) (log2 ratio); higher = more soluble; conditions: cell cycle stage: G1/S
[2] = test system: HeLa Kyoto; test: melting temperature (median over replicates), in situ; higher = more thermally stable
[3] = test system: HeLa Kyoto; test: solubility change mitosis vs G1/S (difference of NP-40 vs SDS log2 ratios) (log2 ratio difference); higher = more soluble in mitosis
[4] = test system: HeLa Kyoto; test: thermal stability score vs G1/S (z-score of summed log2 fold changes over temperatures); higher = more thermally stable than in G1/S
[5] = cell cycle stage: early G1 (4.5 h after nocodazole release)
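Throughout, for melting temperature (median over replicates), in situ: HeLa Kyoto cells synchronized by double thymidine or nocodazole block, proteins quantified by TMT10plex mass spectrometry, three independent biological replicates.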
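Throughout, for solubility change mitosis vs G1/S (difference of NP-40 vs SDS log2 ratios): synchronized HeLa Kyoto cells (double thymidine block for G1/S, nocodazole release for mitosis), protein amounts in NP-40 versus SDS lysates quantified by mass spectrometry, three biological replicates.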
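Throughout, for solubility in G1/S (NP-40 vs SDS abundance): HeLa Kyoto cells arrested at G1/S by double thymidine block, proteins quantified by TMT10plex mass spectrometry in mild NP-40 versus SDS extracts, three biological replicates.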
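Throughout, for thermal stability score vs G1/S (z-score of summed log2 fold changes over temperatures): synchronized HeLa Kyoto cells, proteins quantified by TMT10plex mass spectrometry, three biological replicates, mitosis taken 0.5 h after nocodazole release, G1/S directly after double thymidine block.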

Chain of CLIC4 (chain, as listed by the source): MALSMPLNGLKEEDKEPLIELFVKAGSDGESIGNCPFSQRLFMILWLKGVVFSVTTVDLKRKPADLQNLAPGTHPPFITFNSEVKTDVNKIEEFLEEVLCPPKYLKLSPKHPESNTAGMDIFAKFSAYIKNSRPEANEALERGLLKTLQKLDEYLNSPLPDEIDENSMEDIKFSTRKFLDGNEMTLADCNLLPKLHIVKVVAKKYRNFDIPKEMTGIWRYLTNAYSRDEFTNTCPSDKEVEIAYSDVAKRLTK

Substance | solubility in G1/S (log2) [1] | melting temperature ([2]; cell cycle stage: G1/S) | melting temperature ([2]; cell cycle stage: mitosis) | solubility change mitosis (log2) [3] | thermal stability score [4, 5] | thermal stability score ([4]; cell cycle stage: mitosis)
MAFVTRQFMRSVSSSSTASASAKKIIVKHVTVIGGGLMGAGIAQVAAATGHTVVLVDQTEDILAKSKKGIEESLRKVAKKKFAENLKAGDEFVEKTLSTIATSTDAASVVHSTDLVVEAIVENLKVKNELFKRLDKFAAEHTIFASNTSSLQITSIANATTRQDRFAGLHFFNPVPVMKLVEVIKTPMTSQKTFESLVDFSKALGKHPVSCKDTPGFIVNRLLVPYLMEAIRLYERGDASKEDIDTAMKLGAGYPMGPFELLDYVGLDTTKFIVDGWHEMDAENPLHQPSPSLNKLVAENKFGKKTGEGFYKYK [HADH] | 0.267 | 53.4 °C | 53.7 °C | 0.00527 | -2.07 | -1.2
MATAVSRPCAGRSRDILWRVLGWRIVASIVWSVLFLPICTTVFIIFSRIDLFHPIQWLSDSFSDLYSSYVIFYFLLLSVVIIIISIFNVEFYAVVPSIPCSRLALIGKIIHPQQLMHSFIHAAMGMVMAWCAAVITQGQYSFLVVPCTGTNSFGSPAAQTCLNEYHLFFLLTGAFMGYSYSLLYFVNNMNYLPFPIIQQYKFLRFRRSLLLLVKHSCVESLFLVRNFCILYYFLGYIPKAWISTAMNLHIDEQVHRPLDTVSGLLNLSLLYHVWLCGVFLLTTWYVSWILFKIYATEAHVFPVQPPFAEGSDECLPKVLNSNPPPIIKYLALQDLMLLSQYSPSRRQEVFSLSQPGGHPHNWTAISRECLNLLNGMTQKLILYQEAAATNGRVSSSYPVEPKKLNSPEETAFQTPKSSQMPRPSVPPLVKTSLFSSKLSTPDVVSPFGTPFGSSVMNRMAGIFDVNTCYGSPQSPQLIRRGPRLWTSASDQQMTEFSNPSPSTSISAEGKTMRQPSVIYSWIQNKREQIKNFLSKRVLIMYFFSKHPEASIQAVFSDAQMHIWALEGLSHLVAASFTEDRFGVVQTTLPAILNTLLTLQEAVDKYFKLPHASSKPPRISGSLVDTSYKTLRFAFRASLKTAIYRITTTFGEHLNAVQASAEHQKRLQQFLEFKE [NDC1] | -0.187 | 52.7 °C | 51.3 °C | 0.182 | -4.66 | -7.41
HNRNPK | 0.317 | 49.7 °C | 49.9 °C | 0.0123 | -0.521 | 2.21
CLIC4 | 0.409 | 52.1 °C | 52.5 °C | -0.146 | -0.344 | 0.497
MWRLPGARAALRVIRTAVEKLSRAEAGSQTAAGAMERAVVRCVPSEPKLSLSFALADGSHKNMQRDQSEPLGRVLSRIATNALKGHAKAAAAKKSRKSRPNASGGAACSGPGPEPAVFCEPVVKLYYREEAVAEDVLNVDAWQDGAVLQIGDVKYKVERNPPAFTELQLPRYIMAGFPVCPKLSLEFGDPASSLFRWYKEAKPGAAEPEVGVPSSLSPSSPSSSWTETDVEERVYTPSNADIGLRLKLHCTPGDGQRFGHSRELESVCVVEAGPGTCTFDHRHLYTKKVTEDALIRTVSYNILADTYAQTEFSRTVLYPYCAPYALELDYRQNLIQKELTGYNADVICLQEVDRAVFSDSLVPALEAFGLEGVFRIKQHEGLATFYRKSKFSLLSQHDISFYEALESDPLHKELLEKLVLYPSAQEKVLQRSSVLQVSVLQSTKDSSKRICVANTHLYWHPKGGYIRLIQMAVALAHIRHVSCDLYPGIPVIFCGDFNSTPSTGMYHFVINGSIPEDHEDWASNGEEERCNMSLTHFFKLKSACGEPAYTNYVGGFHGCLDYIFIDLNALEVEQVIPLPSHEEVTTHQALPSVSHPSDHIALVCDLKWK [PDE12] | 0.0541 | 52.1 °C | 52.3 °C | -0.171 | -1.65 | -1.58
MAGVACLGKAADADEWCDSGLGSLGPDAAAPGGPGLGAELGPGLSWAPLVFGYVTEDGDTALHLAVIHQHEPFLDFLLGFSAGTEYMDLQNDLGQTALHLAAILGETSTVEKLYAAGAGLCVAERRGHTALHLACRVGAHACARALLQPRPRRPREAPDTYLAQGPDRTPDTNHTPVALYPDSDLEKEEEESEEDWKLQLEAENYEGHTPLHVAVIHKDVEMVRLLRDAGADLDKPEPTCGRSPLHLAVEAQAADVLELLLRAGANPAARMYGGRTPLGSAMLRPNPILARLLRAHGAPEPEGEDEKSGPCSSSSDSDSGDEGDEYDDIVVHSSRSQTRLPPTPASKPLPDDPRPV [NFKBIB] | 0.533 | 49.3 °C | 50 °C | -0.224 | 0.217 | 0.0879
